From the supplement of paper PMC9170038

System: MS2 coat protein
Assay: apparent KD of MS2 coat protein; designed switch direction (-1 OFF switch, 1 ON switch): -1; higher = weaker reporter binding
Summary of the method: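 SNAP-549-labelled MS2 coat protein was titrated, doubling from 0.7 or 1.5 nM to 3 µM, over designed RNA switches transcribed on Illumina chips by stalled E. coli RNA polymerase. Runs were done without input, with 200 uM small-molecule ligand, or with an oligonucleotide input. Apparent KD is the per-design median over clusters of curve-fitted normalised fluorescence.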

Row | Sequence | apparent KD of MS2 coat protein (input ligand: FMN 200 uM) [nM] | apparent KD of MS2 coat protein (input ligand: none) [nM] | apparent KD of MS2 coat protein (input ligand: microRNA oligo, concentration not stated) [nM] | apparent KD of MS2 coat protein (Eterna round: R95, input ligand: FMN 200 uM) [nM] | apparent KD of MS2 coat protein (Eterna round: R95, input ligand: microRNA oligo, concentration not stated) [nM] | apparent KD of MS2 coat protein (Eterna round: R95, input ligand: none) [nM]
1 | GGCACACAUGAGGAUCACCCAUGUGAGGAUAUGGUGCGAUCGUCGAAAGACGAUAGCACUAGAAGGCACAUGCC [Eli x1 4.06] (Eterna round: R97, puzzle: Exclusion 1) | 28.2 | 16.1 | – | – | – | –
2 | GGCACACAUGAGGAUCACCCAUGUGAGGAUAUGUGGCGAUCGUCGAAAGACGAUAGCCAUAGAAGGCACAUGCC [Eli x1 4.08] (Eterna round: R97, puzzle: Exclusion 1) | 32.1 | 18.1 | – | – | – | –
3 | GGCAGACAUGAGGAUCACCCAUGUCAGGAUAUGCGGCGAAGUACAGUUAGUGCAUUUGGUAGAAGGGACAAGGA [Eternabot (L1) Solution 100] (Eterna round: R97, puzzle: Exclusion 1) | 29.8 | 32.5 | – | – | – | –
4 | GGCAUACCACAAGCUUUUUACAUGAGGAUCACCCAUGUGGUUUUUAGUCUUAUCCCGGGCCCGAUAUCGGGCCCGGG [-33.9, -54.7, A 19%] (Eterna round: R97, puzzle: Sensor, turn-off variant 1) | 36.7 | 38.3 | – | – | – | –
5 | GGCAUCGGAGGAUAUACUUAUGGUGAUACCCGAAGCUUUCUACUUGAGGAUCACCCAAGUAGAAGGCCGAUGCC [jl-ex2.4.81 ViennaUCT mod] (Eterna round: R97, puzzle: Exclusion 2) | 11.7 | 12.6 | – | – | – | –
6 | GGCCCGGGAGGAUAUACAUGAGGAUCACCCAUGUUGAAGUUGAAGAUCUUCGGCUUCGGUAGAAGGCCCGGGCC [-35, -32.8 kcal, 23% A, 3, 0] (Eterna round: R97, puzzle: Exclusion 3) | 18.2 | 13.6 | – | – | – | –
7 | GGCCGUAAUAAGGAUAUCACUAGCUUCGGCUAGUGAGAAGGUAUUACAUGAGGAUCACCCAUGUGAUCAGGCCA [E6/3-B1] (Eterna round: R97, puzzle: Exclusion 6) | 726 | 170 | – | – | – | –
8 | GGCGCCUCAGGAUAUCAGUCUGGAUCAGAAAAGAUCCUGACUGAGAAGGGACAUGAGGAUCACCCAUGUUCGCC [Mat - Exclusion 4 - Eli Mod - D52] (Eterna round: R97, puzzle: Exclusion 4) | 17.3 | 18.4 | – | – | – | –
9 | GGCUUGCUAGUAGGAUAUCGCUUGUACAUGAGGAUCACCCAUGUGUGAUAUGCCUACAUAGUGCGUGAGAAGGACUGCAAGCCG [Diatdiinin] (Eterna round: R96, puzzle: Exclusion NG 2) | 23.2 | 14.1 | 8.15 | – | – | –
10 | GGGAUGUCAGGAUAUCCGAAAGUCUACCAAUACGGCAGACAGGAGAAGGGACAUGAGGAUCACCCAUGUAAAGA [Quatma] (puzzle: Exclusion 4) | – | – | – | 114 | 36.7 | 52.4
11 | GGGCAGGGAGGAUAUGUAUCGCACUACAUGAGGAUCACCCAUGUGCCUUUUGUGACGUGGACAGAAGGUCCUGCCG [Eternabot (L1) Solution 17] (Eterna round: R97, puzzle: Exclusion 5) | 129 | 193 | – | – | – | –
12 | GGGCCCGGAGGAUAUACAAUGGGCCCGGGAAAUUGGGCCCUACAUGAGGAUCACCCAUGUAGAAGGCCGGGCCC [-40.2, -38.1 kcal A 24%, 5c,0] (Eterna round: R97, puzzle: Exclusion 2) | 16.1 | 12.5 | – | – | – | –
13 | GGGCUGUCAGGAUAUGUGUGUGUGUGUGAAAGCGCGCGCGCGCAGAAGGGACAUGAGGAUCACCCAUGUGGCCC [-35.3, -34.3 kcal, A 20%, 6bis-0] (Eterna round: R97, puzzle: Exclusion 4) | 32.1 | 33 | – | – | – | –
14 | GGGCUUAAAGGAUAUGCAAGGAGCCACAUGAGGAUCACCCAUGUACAACCUCAGUCCCUGGUAGAAGGUUACGCAA [whoooo] (Eterna round: R97, puzzle: Exclusion 5) | 35 | 30.6 | – | – | – | –
